{
  "source": "paper PMC6695192",
  "key": {"[1]": {"target": "EGFP-fused ACBD3 GOLD domain (human) (UniProt Q9H3P7)", "assay": "MST; EGFP-fused GOLD domain at a constant 150 nM, GB1-fused 3A cytoplasmic domain in a series of concentrations; 30 mM Tris pH 7.4, 150 mM NaCl, 3 mM β-mercaptoethanol; Monolith NT.115"}, "[2]": {"target": "GB1-fused cytoplasmic domain of the enterovirus D68 3A protein, wild type (enterovirus D68)", "assay": "SEC"}, "[3]": {"target": "GOLD-EVD68 3A fusion protein, wild type (human | enterovirus D68) (UniProt Q9H3P7)", "assay": "SEC"}, "[4]": {"target": "GOLD-EVD68 3A fusion protein, wild type (human | enterovirus D68) (UniProt Q9H3P7)", "assay": "[…]; 30 mM Tris pH 7.4, 150 mM NaCl, 1 mM TCEP; […]"}, "[5]": {"target": "GOLD-3A fusion protein LVVY mutant N-terminally fused to mAmetrine or mPlum (UniProt Q9H3P7)", "assay": "FRET by flow cytometry in HeLa cells (self-association of mAmetrine- and mPlum-fused GOLD-3A)", "details": "mean FRET signal at a fixed acceptor signal (dashed line in f, acceptor fluorescence 100 a.u.); three independent experiments; p-value = 0.004; parent: est. …; read off a plot"}},
  "data": [
    {"substance": "GB1-fused cytoplasmic domain of the enterovirus A71 3A protein (domain or fragment)", "values": [
      {"measurement": "Kd", "setting": "[1]", "result": 15, "unit": "µM"}
    ]},
    {"substance": "GB1-fused cytoplasmic domain of the enterovirus D68 3A protein, wild type (domain or fragment)", "values": [
      {"measurement": "stoichiometry N", "setting": "[2]", "result": 2},
      {"measurement": "Kd", "setting": "[1]", "result": 1, "unit": "µM"}
    ]},
    {"substance": "GB1-fused cytoplasmic domain of the rhinovirus B14 3A protein (domain or fragment)", "values": [
      {"measurement": "Kd", "setting": "[1]", "result": 1, "unit": "µM"}
    ]},
    {"substance": "GOLD-EVD68 3A fusion protein, wild type (from UniProt Q9H3P7)", "values": [
      {"measurement": "stoichiometry N", "setting": "[3]", "result": 2},
      {"measurement": "stoichiometry N", "setting": "[4]", "result": 2}
    ]},
    {"substance": "wild-type GOLD-3A fusion protein N-terminally fused to mAmetrine or mPlum (from UniProt Q9H3P7) L25A; V29A; V34A; Y37A", "values": [
      {"measurement": "response", "setting": "[5]", "result": 3.9, "unit": "a.u."}
    ]}
  ]
}
